In PMC8344073:

T1: RORα (UniProt P35398 1-523)
T1 sequence: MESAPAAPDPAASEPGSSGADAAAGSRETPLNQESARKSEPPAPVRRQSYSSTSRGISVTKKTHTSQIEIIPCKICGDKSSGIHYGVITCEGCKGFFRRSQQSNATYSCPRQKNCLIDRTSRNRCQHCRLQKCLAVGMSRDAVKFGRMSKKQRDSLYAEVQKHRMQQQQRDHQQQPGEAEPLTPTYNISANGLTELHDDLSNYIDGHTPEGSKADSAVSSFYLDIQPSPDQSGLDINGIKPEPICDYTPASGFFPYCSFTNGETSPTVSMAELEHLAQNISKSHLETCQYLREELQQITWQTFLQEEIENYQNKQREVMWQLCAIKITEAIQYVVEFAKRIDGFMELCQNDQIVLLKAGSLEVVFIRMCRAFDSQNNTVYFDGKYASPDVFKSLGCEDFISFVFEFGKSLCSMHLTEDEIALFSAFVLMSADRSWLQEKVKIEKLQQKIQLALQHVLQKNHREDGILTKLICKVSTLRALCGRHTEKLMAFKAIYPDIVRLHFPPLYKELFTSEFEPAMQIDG


Legend:
RORα = target: T1, RORα; assay: EMSA
ERα = ERα (UniProt P03372 1-595); assay: EMSA
Chain of ERα (P03372 whole entry): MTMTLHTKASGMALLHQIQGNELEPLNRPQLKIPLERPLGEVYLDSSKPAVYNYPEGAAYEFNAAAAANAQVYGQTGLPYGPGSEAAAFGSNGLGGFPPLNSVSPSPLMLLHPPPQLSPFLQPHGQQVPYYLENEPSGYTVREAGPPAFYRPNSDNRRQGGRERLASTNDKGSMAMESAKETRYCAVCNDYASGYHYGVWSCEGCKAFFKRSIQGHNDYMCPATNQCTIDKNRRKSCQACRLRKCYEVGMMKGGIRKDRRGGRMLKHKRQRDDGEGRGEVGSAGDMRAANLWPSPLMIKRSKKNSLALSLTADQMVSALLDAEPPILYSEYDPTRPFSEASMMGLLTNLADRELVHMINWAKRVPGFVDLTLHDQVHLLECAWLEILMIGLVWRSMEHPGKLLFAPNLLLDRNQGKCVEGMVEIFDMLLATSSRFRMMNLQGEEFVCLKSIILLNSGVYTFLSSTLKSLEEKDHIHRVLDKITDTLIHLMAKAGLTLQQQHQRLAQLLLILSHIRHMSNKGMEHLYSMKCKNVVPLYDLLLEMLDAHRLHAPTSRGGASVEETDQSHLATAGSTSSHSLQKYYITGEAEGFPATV

Row | Binder | binding result (RORα) | binding result (ERα)
1 | SULT1E1 RORE (dsDNA) DNA 1: AGAGAATTGAGGTCACAG DNA 2: CTGTGACCTCAATTCTCT | binds | –
2 | SULT1E1 ERE (dsDNA) DNA 1: GAGGGTCAAGATAAACATT DNA 2: AATGTTTATCTTGACCCTC | – | binds
